± gives the uncertainty stated by the source.

First the molecules themselves.
B1: GA-binding protein alpha chain, residues 172 to 250; numbered along this chain, Q06546 (parent)
chain: GYRKEQERLGIPYDPIQWSTDQVLHWVVWVMKEFSMTDIDLTTLNISGRELCSLNQEDFFQRVPRGEILWSHLELLRKY

In the data set the parent is B1. The experiment in a line: abundance fitness (aPCA) (normalised: wild type 0, dead -1); higher = more abundant; growth selection in yeast, the domain comes from the species named. To be noted: Homo sapiens.
Turning to GYRKEQERLGIPYDPIQWSTDQVLHWVVWVMKEFSMTDIDLTTLNISGRELCSLNQYDFFQRVPRGEILWSHLELLRKY [E57Y], the abundance fitness turned out to be 0.009 ± 0.098.

On to GYRKEQERLGIPYDPIQWSTDQVLHWVVWVMKEFSMTDIDLTTLNISGRELCSLNQNDFFQRVPRGEILWSHLELLRKY [E57N], for which the abundance fitness is -0.192 ± 0.099.

In the case of GYRKEQERLGIPYDPIQWSTDQVLHWVVWVMKEFSMTDIDLTTLNISGRELCSLNQIDFFQRVPRGEILWSHLELLRKY [E57I], the abundance fitness is -0.153 ± 0.14.

GYRKEQERLGIPYDPIQWSTDQVLHWVVWVMKEFSMTDIDLTTLNISGRELCSLNQGDFFQRVPRGEILWSHLELLRKY [E57G]: the abundance fitness is -0.045 ± 0.042.

For GYRKEQERLGIPYDPIQWSTDQVLHWVVWVMKEFSMTDIDLTTLNISGRELCSLNQVDFFQRVPRGEILWSHLELLRKY [E57V], the abundance fitness was -0.081 ± 0.04.

Turning to GYRKEQERLGIPYDPIQWSTDQVLHWVVWVMKEFSMTDIDLTTLNISGRELCSLNQHDFFQRVPRGEILWSHLELLRKY [E57H], the abundance fitness is -0.023 ± 0.093.

On to GYRKEQERLGIPYDPIQWSTDQVLHWVVWVMKEFSMTDIDLTTLNISGRELCSLNQTDFFQRVPRGEILWSHLELLRKY [E57T], for which the abundance fitness was -0.068 ± 0.061.

Take GYRKEQERLGIPYDPIQWSTDQVLHWVVWVMKEFSMTDIDLTTLNISGRELCSLNQADFFQRVPRGEILWSHLELLRKY [E57A]: the abundance fitness turned out to be 0.011 ± 0.047.

As to GYRKEQERLGIPYDPIQWSTDQVLHWVVWVMKEFSMTDIDLTTLNISGRELCSLNQSDFFQRVPRGEILWSHLELLRKY [E57S], the abundance fitness is -0.051 ± 0.042.

Regarding GYRKEQERLGIPYDPIQWSTDQVLHWVVWVMKEFSMTDIDLTTLNISGRELCSLNQWDFFQRVPRGEILWSHLELLRKY [E57W], the abundance fitness is -0.135 ± 0.068.

With GYRKEQERLGIPYDPIQWSTDQVLHWVVWVMKEFSMTDIDLTTLNISGRELCSLNQMDFFQRVPRGEILWSHLELLRKY [E57M], the abundance fitness was -0.139 ± 0.073.

GYRKEQERLGIPYDPIQWSTDQVLHWVVWVMKEFSMTDIDLTTLNISGRELCSLNQDDFFQRVPRGEILWSHLELLRKY [E57D]: the abundance fitness was -0.063 ± 0.089.

GYRKEQERLGIPYDPIQWSTDQVLHWVVWVMKEFSMTDIDLTTLNISGRELCSLNQRDFFQRVPRGEILWSHLELLRKY [E57R]: the abundance fitness was -0.082 ± 0.037.

On to GYRKEQERLGIPYDPIQWSTDQVLHWVVWVMKEFSMTDIDLTTLNISGRELCSLNQKDFFQRVPRGEILWSHLELLRKY [E57K], for which the abundance fitness is -0.122 ± 0.089.

In the case of GYRKEQERLGIPYDPIQWSTDQVLHWVVWVMKEFSMTDIDLTTLNISGRELCSLNQQDFFQRVPRGEILWSHLELLRKY [E57Q], the abundance fitness is -0.046 ± 0.063.

GYRKEQERLGIPYDPIQWSTDQVLHWVVWVMKEFSMTDIDLTTLNISGRELCSLNQCDFFQRVPRGEILWSHLELLRKY [E57C]: the abundance fitness was -0.058 ± 0.086.

As to GYRKEQERLGIPYDPIQWSTDQVLHWVVWVMKEFSMTDIDLTTLNISGRELCSLNQLDFFQRVPRGEILWSHLELLRKY [E57L], the abundance fitness was -0.076 ± 0.044.

Take GYRKEQERLGIPYDPIQWSTDQVLHWVVWVMKEFSMTDIDLTTLNISGRELCSLNQPDFFQRVPRGEILWSHLELLRKY [E57P]: the abundance fitness is -0.098 ± 0.043.

Take GYRKEQERLGIPYDPIQWSTDQVLHWVVWVMKEFSMTDIDLTTLNISGRELCSLNQEDCFQRVPRGEILWSHLELLRKY [F59C]: the abundance fitness is -0.972 ± 0.3.

Regarding GYRKEQERLGIPYDPIQWSTDQVLHWVVWVMKEFSMTDIDLTTLNISGRELCSLNQEDAFQRVPRGEILWSHLELLRKY [F59A], the abundance fitness is -0.813 ± 0.082.

Consider GYRKEQERLGIPYDPIQWSTDQVLHWVVWVMKEFSMTDIDLTTLNISGRELCSLNQEDGFQRVPRGEILWSHLELLRKY [F59G], for which the abundance fitness is -0.888 ± 0.063.

Take GYRKEQERLGIPYDPIQWSTDQVLHWVVWVMKEFSMTDIDLTTLNISGRELCSLNQEDHFQRVPRGEILWSHLELLRKY [F59H]: the abundance fitness was -0.931 ± 0.23.

For GYRKEQERLGIPYDPIQWSTDQVLHWVVWVMKEFSMTDIDLTTLNISGRELCSLNQEDEFQRVPRGEILWSHLELLRKY [F59E], the abundance fitness was -0.954 ± 0.15.

Consider GYRKEQERLGIPYDPIQWSTDQVLHWVVWVMKEFSMTDIDLTTLNISGRELCSLNQEDIFQRVPRGEILWSHLELLRKY [F59I], for which the abundance fitness was -0.507 ± 0.12.

Regarding GYRKEQERLGIPYDPIQWSTDQVLHWVVWVMKEFSMTDIDLTTLNISGRELCSLNQEAFFQRVPRGEILWSHLELLRKY [D58A], the abundance fitness is -0.041 ± 0.043.

Regarding GYRKEQERLGIPYDPIQWSTDQVLHWVVWVMKEFSMTDIDLTTLNISGRELCSLNQETFFQRVPRGEILWSHLELLRKY [D58T], the abundance fitness was -0.053 ± 0.09.

On to GYRKEQERLGIPYDPIQWSTDQVLHWVVWVMKEFSMTDIDLTTLNISGRELCSLNQEYFFQRVPRGEILWSHLELLRKY [D58Y], for which the abundance fitness was -0.165 ± 0.085.

Take GYRKEQERLGIPYDPIQWSTDQVLHWVVWVMKEFSMTDIDLTTLNISGRELCSLNQEIFFQRVPRGEILWSHLELLRKY [D58I]: the abundance fitness was -0.022 ± 0.094.

As to GYRKEQERLGIPYDPIQWSTDQVLHWVVWVMKEFSMTDIDLTTLNISGRELCSLNQEKFFQRVPRGEILWSHLELLRKY [D58K], the abundance fitness is -0.129 ± 0.078.

Take GYRKEQERLGIPYDPIQWSTDQVLHWVVWVMKEFSMTDIDLTTLNISGRELCSLNQENFFQRVPRGEILWSHLELLRKY [D58N]: the abundance fitness was -0.188 ± 0.078.

GYRKEQERLGIPYDPIQWSTDQVLHWVVWVMKEFSMTDIDLTTLNISGRELCSLNQEQFFQRVPRGEILWSHLELLRKY [D58Q]: the abundance fitness is -0.03 ± 0.053.

With GYRKEQERLGIPYDPIQWSTDQVLHWVVWVMKEFSMTDIDLTTLNISGRELCSLNQESFFQRVPRGEILWSHLELLRKY [D58S], the abundance fitness is 0.003 ± 0.042.

Consider GYRKEQERLGIPYDPIQWSTDQVLHWVVWVMKEFSMTDIDLTTLNISGRELCSLNQECFFQRVPRGEILWSHLELLRKY [D58C], for which the abundance fitness is -0.177 ± 0.063.

Take GYRKEQERLGIPYDPIQWSTDQVLHWVVWVMKEFSMTDIDLTTLNISGRELCSLNQEVFFQRVPRGEILWSHLELLRKY [D58V]: the abundance fitness was -0.091 ± 0.044.

Source of the values: the Human Domainome abundance scans (Beltran et al. 2025).
